In the supplement of paper PMC9170038:

Test system: MS2 coat protein
Assay: apparent KD of MS2 coat protein; designed switch direction (-1 OFF switch, 1 ON switch): 1; higher = weaker reporter binding
How it was run: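 The reported apparent KD is a per-design median over clusters, from curve fits of normalised cluster fluorescence. Protein titrations used SNAP-549-labelled MS2 coat protein, doubled from 0.7 or 1.5 nM to 3 µM, in Tris-HCl pH 7.5 buffer with KCl, MgCl2, BSA, DTT, tRNA and Tween-20, with no input, 200 uM small-molecule ligand, or an oligonucleotide input. The RNA switches were transcribed on Illumina chips by stalled E. coli RNA polymerase.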

[1] = input ligand: microRNA oligo, concentration not stated
[2] = Eterna round: R95, input ligand: FMN 200 uM
[3] = Eterna round: R95, input ligand: microRNA oligo, concentration not stated
[4] = Eterna round: R95, input ligand: none

Sequence | apparent KD of MS2 coat protein (input ligand: FMN 200 uM) [nM] | apparent KD of MS2 coat protein [1] [nM] | apparent KD of MS2 coat protein (input ligand: none) [nM] | apparent KD of MS2 coat protein [2] [nM] | apparent KD of MS2 coat protein [3] [nM] | apparent KD of MS2 coat protein [4] [nM]
AGGAAACAUGAGGAUCACCCAUGUAAGAUAUACACAGGAUAUGCGAAAAGAAACAAAGAAGCAGAAGGGUGGAAAA [75%, Ex sub1, 11] (Eterna round: R96, puzzle: Same State 1) | 16.6 | 22.7 | 43.5 |  |  | 
GGAAUAUGAUGUUACAUGAGGAUCACCCAUGUAGUGAUAACUAAGGAUAUUUGAAAGGAAGGAGAAGAGAAGGUAGGAUCAUAA [AK SSNG3-V2-12] (Eterna round: R96, puzzle: Same State NG 3) | 50.9 | 34.3 | 55.4 |  |  | 
AGUGGAGCCUGAGCUCCACAAAAGCAUGUACAUGAGGAUCACCCAUGUCAUGUACAAGCUUUUUGCUCGUCUUAAAA [Mat - hsa-mir-208a - Mod of JL - D18] (Eterna round: R96, puzzle: Sensor for hsa-mir-208a) | 552 | 14 | 502 |  |  | 
ACGUCGAGAUCACAGGAUAUACUCACAUCUACAUGAGGAUCACCCAUGUAGCGGUAUUCCGGUGCGUAGAAGGGUGAUCGACGAC [Same State 2 - Mod of Artece v.5] (puzzle: Same State 2) |  |  |  | 14.6 | 9.7 | 11.9
UGGUACAUGGGAGGAUAUGGGUUGAUGACAUGAGGAUCACCCAUGUUAAAUAUGCCGAGAGGCAACUAGAAGGCCCAUGUACCU [JL SSNG1 3.99] (Eterna round: R96, puzzle: Same State NG 2) | 62.7 | 1320 | 1080 |  |  | 
GGAGCCGGCCUAGGAUAUUUCAUAAUAAAACAUGAGGAUCACCCAUGUAGGCCAGAAGGCCUUGGGAAGAAGGAGGUCGGCUCC [Loop Effect - U26] (Eterna round: R96, puzzle: Same State NG 2) | 12.1 | 30.2 | 47 |  |  | 
GGUACAGUUACAGGAUAUGCUAUCCUUUGGGUAGCAGAAGGGUGGUAACAUGAGGAUCACCCAUGUGUGCCAGGGCGUGAGCCC [JL SSNG1 1.99] (Eterna round: R96, puzzle: Same State NG 1) | 502 | 387 | 700 |  |  | 
GAGGCACAUGAGGAUCACCCAUGUGGGCGGAACAUAGGAUAUCGCCAACAAUAAGCCCGGUGAGAAGGAUGAUGCC [Lexereat] (puzzle: Same State 1) |  |  |  | 46.2 | 17.6 | 36.4
AGAUCAUGACGAGGAUAUGGAACAUGAGGAUCACCCAUGUAUGUUCCAUAACGCGAACGACGAAUCCAGAAGGCGUCGUGGUCA [JL SSNG2 1.09] (Eterna round: R96, puzzle: Same State NG 2) | 7.15 | 18.6 | 28.3 |  |  | 
UUGGUGUAGAUACAGGAUAUGUUGCUUGUAACAUGAGGAUCACCCAUGUAUCUAUGAGAUUAAAUGCAGAAGGGUGCACAUCACU [salish99_ss2_r3_089] (puzzle: Same State 2) |  |  |  | 390 | 582 | 1020
UUGCGCUGUCGAGAGGAUAUGCGGUGAUGGACAUGAGGAUCACCCAUGUUAGCGAUAGCAUUACGGUAGAAGGCUCUUCAGCUGC [salish99_ss2_r3_095] (puzzle: Same State 2) |  |  |  | 16.2 | 21.8 | 26.2
GCGAAGAGGUAAGGAUAUGCAUGGCGGAGACAUGAGGAUCACCCAUGUUGGAGACGAAAUCUAGGGUAGAAGGUACCAGGACGC [AK SSNG2-V2-13] (Eterna round: R96, puzzle: Same State NG 2) | 41.5 | 64.6 | 72.9 |  |  | 
UAAAUAAUGUAAGGAUAUACAUGAGGAAUUCUCGUAGAAGGUACAUGACAUGAGGAUCACCCAUGUAUCGCUCAGAAGAGCGUA [Mat - Same State NG 1 - JL mod - D28] (Eterna round: R96, puzzle: Same State NG 1) | 1660 | 39.9 | 298 |  |  | 
GUGGUCAGACAUGAGGAUCACCCAUGUGGAAUAAAUAAGGAGAAGGAUAUGCAAUAUAGGAUAUAGCAGAAGGUUUGGUUGGUG (Eterna round: R96, puzzle: Same State NG 3) |  | 69.6 |  |  |  | 
GGUAUCGGCACAGGAUAUGCUAUCCUUUGGGUAGCAGAAGGGUGGAACAUGAGGAUCACCCAUGUGGUGCCAGGGCGUGAGCCC [JL SSNG1 1.88] (Eterna round: R96, puzzle: Same State NG 1) | 586 | 125 | 909 |  |  | 
UUGCUCGUGUAAGGAUAUGCAGCCGUUUCGGCUGCAGAAGGUACUAUAAUACAUGAGGAUCACCCAUGUCUCUAUUAUUUAGUG [salish99_SSNG1_r04_925] (Eterna round: R96, puzzle: Same State NG 1) | 43 | 38.3 | 49.4 |  |  | 
GGUGCCAAUAAAGCCUACAUGAGGAUCACCCAUGUAUGUAGGCAGGAUAUCGUUUGCUUUGCAAACGAGAAGGGCCGAGGCACC [JL SSNG3 1.19] (Eterna round: R96, puzzle: Same State NG 3) | 20.4 | 25.1 | 42.7 |  |  | 
UGCUAGGAUAUCUUGAGGAUCACCCAGGAGAAGGAGUAAAGUUAGGAUAUCCUGAGGAUCACCCAGGAGAAGGAGCACAUACUC [pwkr ssNG3 DX 2xF5 +2xFMN.14] (Eterna round: R96, puzzle: Same State NG 3) | 50.7 | 79.8 | 58.4 |  |  | 
AUUUCUAGCAUAGGAUAUCAUGCGAAAAUUGCGUGAGAAGGGUGGACGCUGUCAUUCACGGAAGACAUGAGGAUCACCCAUGUC [SameState NG1 #75] (Eterna round: R96, puzzle: Same State NG 1) | 76.6 | 67.6 | 87.2 |  |  | 
CGCAACGGCUGAGGAUAUGUCAACACGGGACGGGCAGAAGGUAGCAACCACCCACAUGAGGAUCACCCAUGUAUCCAAAUUCAC [Eternabot solution 38] (Eterna round: R96, puzzle: Same State NG 1) | 48.9 | 41.5 | 42.3 |  |  | 
AGGCCAUCGGGAGGAUAUGGCACCUUAUUGGUGCCAGAAGGUCCAACAUGAGGAUCACCCAUGUGGGAGUGGUCUAAUGACCAC [Fiskers NG1(ss) - 4] (Eterna round: R96, puzzle: Same State NG 1) | 64.3 | 58.1 | 64 |  |  | 
UGGUACAUGGGAGGAUAUCUCGUAGAGACAUGAGGAUCACCCAUGUAGAUGGCCGGUAACCGGGAAGAGAAGGCCCAUGUACCU [JL SSNG1 3.66] (Eterna round: R96, puzzle: Same State NG 2) | 203 | 56.1 | 82.6 |  |  | 
UAAAGAUCGCGAGGAUAUCGCGAGGAUCACCCGUGAGAAGGCGCAGAGCCGAGGAUCACCCGGCUGAUCCUGAGGAGGAGGUCU (Eterna round: R96, puzzle: Same State NG 1) | 124 | 202 | 318 |  |  | 
AUGGUGCAGGUACAGGAUAUGUUGCUCGUAACAUGAGGAUCACCCAUGUACCUAUGAGAUUAAAUGCAGAAGGGUGCACACCACA [Mat - Same State 2 - Mod of UCT - D88] (puzzle: Same State 2) |  |  |  | 40.8 | 325 | 283
UCUGCAAGAACAGGAUAUGGGUUCAGAGCGGGAGUGCGCUUUGAUACAUGAGGAUCACCCAUGUCCCAGAAGGGUUCAAGCGGC [Maedraedbi] (Eterna round: R96, puzzle: Same State NG 2) | 32.9 | 35.2 | 188 |  |  | 
UUCCCAUCGGGAGGAUAUGGAACCUUAUUGGUUCUAGAAGGUCCAACAUGAGGAUCACCCAUGUGGGAGUGGUCUAAUGACCAC [SS NG10LRO02] (Eterna round: R96, puzzle: Same State NG 1) | 117 | 141 | 159 |  |  | 
ACAUGAGGGUGAGGAUAUUGGAACUCACCUGACAUGAGGAUCACCCAUGUUCAAUGAGGAUCACCCAAGAAGGCACGUUGUGGA [Same State NG2 S3] (Eterna round: R96, puzzle: Same State NG 2) | 29.2 | 24 | 36.2 |  |  | 
UCUUGGUUUUUGCUCGUUUUUUGUGUUGAACAUGAGGAUCACCCAUGUAUUGUACAGUCCAAUUUGAUAAUGGUCCG [JMF 54] (Eterna round: R96, puzzle: Sensor for hsa-mir-208a) | 50.2 | 28.1 | 55.1 |  |  | 
UUGUUUUGAAAUUAACAUGAGGAUCACCCAUGUCUUGACACAGAGGAUAUACAUGUUUGUUUGUAGUAGAAGGCUGUUUAUUGU [JR_SSNG3_Sub097] (Eterna round: R96, puzzle: Same State NG 3) | 57 | 98 | 135 |  |  | 
GGAGGACAUGAGGAUCACCCAUGUGGAUGGGCGCUAGGAUAUGCGAGAGGGUGGAGAGAAGCAGAAGGAGUGGAUA [JR_SS1_Sub038] (puzzle: Same State 1) |  |  |  | 76.7 | 62.9 | 75
